Measurements taken from patent publication US20160000860A1 (University of California, published 2016).
Bridges are numbered along the chain shown (N, C = ends). Where no end group is shown, it is not given here.

T1: spp24 (secreted phosphoprotein, 24 kD), the parental protein of BBP (Bos taurus (Bovine), UniProt Q27967 24-203)
T1 construct: also called the related protein
T1 sequence: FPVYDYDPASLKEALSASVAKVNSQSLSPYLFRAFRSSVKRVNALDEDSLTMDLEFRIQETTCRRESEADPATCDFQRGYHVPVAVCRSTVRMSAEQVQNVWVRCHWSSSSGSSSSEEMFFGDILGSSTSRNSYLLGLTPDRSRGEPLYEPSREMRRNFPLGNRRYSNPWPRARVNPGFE

T2: recombinant human osteogenic protein-1 (rhOP-1, rhBMP-7) (human, UniProt P18075 293-431)
T2 construct: Amine-coupled to a CM-5 sensor chip
T2 sequence (looked up): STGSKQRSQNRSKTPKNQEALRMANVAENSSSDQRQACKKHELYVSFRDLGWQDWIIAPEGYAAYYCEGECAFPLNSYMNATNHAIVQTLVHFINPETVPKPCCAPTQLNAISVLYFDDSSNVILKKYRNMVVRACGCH

B1: recombinant human bone morphogenetic protein-2 (rhBMP-2) (ligand, UniProt P12643 283-396, looked up)
chain: QAKHKQRKRLKSSCKRHPLYVDFSDVGWNDWIVAPPGYHAFYCHGECPFPLADHLNSTNHAIVQTLVNSVNSKIPKACCVPTELSAISMLYLDENEKVVLKNYQDMVVEGCGCR
notes: Amine-coupled to a CM-5 sensor chip
B2: BMP Binding Peptide (BBP), cyclized synthetic 19 amino acid peptide (peptide)
peptide: CRSTVRMSAEQVQNVWVRC
modifications: disulfide 1-19 (inferred)
notes: it is treated here as the same bovine cyclic peptide; also called cyclized BBP

What was measured:
[1] = target: T1, spp24 (secreted phosphoprotein, 24 kD), …; experiment: SPR (Biacore X), ligand amine-coupled to CM-5 chip, Langmuir analysis
Experimental: (§1) The supernatant was decanted and used for analyses. Protein concentrations were determined using UV spectroscopy at an absorbance of 280 nm. Extinction coefficients were calculated using ProtParam tool (www.expasy.ch/tools/protparam.html). Flow rates ranged from 5 to 50 μl/min, and injection volumes were 20 to 100 μl. To ensure uniformity, an effort was made to react sufficient ligand to the chip to give a baseline value of about 2500 RU (response units). The kinetic constants kₐ (on rate, association constant, “recognition”) and kd (off rate, dissociation constant, “stability”) as well as the equilibrium constant KD (equilibrium constant, “affinity”) were determined by a Langmuir analysis using BIAevaluation software (version 3.2) installed on the instrument by the manufacturer.

[2] = target: B1; experiment: cell-based or functional assay
[3] = target: B1; experiment: SPR (Biacore X), ligand amine-coupled to CM-5 chip, Langmuir analysis
Experimental: as §1

[4] = target: T2, recombinant human osteogenic protein-1 …; experiment: as above
Experimental: as §1

[5] = target: recombinant human transforming growth factor-beta (rhTGF-β) (human); experiment: as above
Experimental: as §1

[6] = target: B1; experiment: SPR (Biacore X), rhBMP-2 on CM-5 chip, peptide as analyte; rhBMP-2 affixed to the chip; cyclized BBP, not reduced

Chain of recombinant human transforming growth factor-beta (rhTGF-β) (human) (P01137 279-390): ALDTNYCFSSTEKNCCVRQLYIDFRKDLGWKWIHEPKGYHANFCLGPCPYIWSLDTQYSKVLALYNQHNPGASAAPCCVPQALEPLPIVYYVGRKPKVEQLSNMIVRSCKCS

Kd [1] | koff [1] | kon [1] | retention of labeled rhBMP-2 in collagen sponge implants in rodent muscle pouches [2] | Kd [3] | Kd [4] | Kd [5] | Kd [6] | Binder
17.7 nM | 0.0055 s⁻¹ | 311000 M⁻¹ s⁻¹ |  |  |  |  |  | B1
 |  |  | ~2 fold | 53.3 nM | 1160 nM | 68 nM | ~30000 nM | B2
